How the values were obtained:
[1] = biological target: ecto-PfGAMA (N25-G715) (P. falciparum); assay: SPR; Biacore X100, CM5 chip; PfGAMA as ligand, analyte in single-cycle kinetics at 0.16, 0.8, 4, 20 and 100 nM; global fit to a 1:1 binding model
[2] = biological target: recombinant ecto-PfGAMA (N25-G715) (P. falciparum); assay: SPR; Biacore X100, CM5 chip; recombinant PfGAMA as ligand, PfMSP10 protein as analyte; single-cycle kinetics at 0.16, 0.8, 4, 20 and 100 nM; global fitting in a 1:1 binding model
[3] = biological target: recombinant ecto-PfGAMA (N25-G715) (P. falciparum)

Row | Molecule | Kd [1] | koff [1] | kon [1] | Kd [2] | GIA activity (growth inhibition of cultured P. falciparum parasites) of 20 mg/ml rabbit antibodies raised against PfMSP10 R1 [3]
1 | PfMSP10 R1 (D29-N188) (domain or fragment) | 648 nM | 0.000355 s⁻¹ | 548 M⁻¹ s⁻¹ | – | –
2 | ecto-PfMSP10 (D29-Q507) (domain or fragment) | 99.7 nM | 0.0015 s⁻¹ | 15000 M⁻¹ s⁻¹ | – | –
3 | recombinant ecto-PfMSP10 (D29-Q507) (domain or fragment) DDIKNTSQKKITYDKYNKNKENMNNEKNDNKDNKDNIYNDNINNDNINNDNINNEDEYKFLSMKHYKDSLSNKLNNENDHMNYLIRKRKDNTQGSQHFNENIENNENVENNENIENNENNENIENIENNENNENNENIENNENNENNENSSIMNSESYNNIINSNEHNEEQIKKKEEDLIEAFFPFILKKLDNESLSLDNKYDDYYNLPNDHNDTHKENSSDHNLLGYKLGNNLKSYLIEENDVSQKKTDDINESASSDSENIQEILSTDSNTSHLKERKNQKAPPGEHKPEVKNALLNSQVASPKGEDEKKSQPQHPLVNSGDQLQHPKEIDENAEKIRRTLLKESRDIKNTTAIIDETVYKFEQLIMKGRYYATAVRNFVIFKVNYICEYSKCGPNSRCYIVEKDKEQCRCRPNYIVDMSVNYFKCIPMKDMNCSKNNGGCDVNAECTIVEGAVKCQCSHLYFGDGVFCVKNSQTKQ | – | – | – | 100 nM | –
4 | PfMSP10 region 1 (R1, D29-N188) (domain or fragment) DDIKNTSQKKITYDKYNKNKENMNNEKNDNKDNKDNIYNDNINNDNINNDNINNEDEYKFLSMKHYKDSLSNKLNNENDHMNYLIRKRKDNTQGSQHFNENIENNENVENNENIENNENNENIENIENNENNENNENIENNENNENNENSSIMNSESYNN | – | – | – | 650 nM | 11%

Source: PMC6880778
